“Also recorded” adds a separate entry of the source.
How the values were obtained:
[1] = TLC-based radiometric assay of product formation by 2-PS, CHS and CHS mutants (LC/MS confirmation); type: biochemical; conditions: for product formed: 100 mM Hepes pH 7.0, 30 μM starter-CoA, 60 μM [14C]-malonyl-CoA, 25° C
From the text: Comparison of the initiation/elongation cavities of 2-PS (SEQ ID NO:68) and CHS (SEQ ID NO:1) reveal four amino acid differences. In 2-PS, Leu202, Met259, Leu261, and Ile343 replace Thr197, Ile254, Gly256, and Ser338, respectively, of CHS. These four substitutions reduce cavity volume from 923 Å^3 in CHS to 274 Å^3 in 2-PS. A model of methylpyrone in the 2-PS cavity, based on the position of acetoacetyl-CoA, emphasizes the volume change compared to the CHS-naringenin complex (Accession No. 1 CGK, SEQ ID NO:69). Leu202 and Ile343 occlude the portion of the 2-PS cavity corresponding to the coumaroyl-binding site of CHS. Replacement of Gly256 in CHS by Leu261 in 2-PS severely reduces the size of the active site cavity. Substitution of Met259 in 2-PS for Ile254 in CHS produces a modest alteration in cavity volume. To examine the functional importance of these amino acid differences, the initiation/elongation cavity of CHS was altered by mutagenesis to resemble that of 2-PS. The resulting mutant proteins were screened for activity using either p-coumaroyl-CoA or acetyl-CoA as starter molecules. Activities of 2-PS, CHS, and the CHS mutants were determined by monitoring product formation using a TLC-based radiometric assay. Assay conditions were 100 mM Hepes (pH 7.0), 30 μM starter-CoA (either p-coumaroyl-CoA or acetyl-CoA), and 60 μM [^14C]-malonyl-CoA (50,000 cpm) in 100 μl at 25° C. Reactions were quenched with 5% acetic acid, extracted with ethyl acetate, and applied to TLC plates and developed. Due to the spontaneous cyclization of chalcone into the flavanone naringenin, activities of CHS are referenced to nanngenin formation.
The x-ray crystal structures of 2-PS (SEQ ID NO:68) and CHS (SEQ ID NO:1) imply that the size of the active site cavity limits polyketide length and modulates folding of the polyketide chain. […] Since the T197L, G256L, and S338Imutants (see SEQ ID NO:1) altered product formation, a CHS triple mutant was generated. […] LC/MS/MS analysis was performed by the Mass Spectroscopy facility of the Scripps Research Institute. Scaled-up assays (2 ml reaction volume) with the CHS T197L/G256L/S338I mutant (see SEQ ID NO:1) and 2-PS (SEQ ID NO:68) were performed. Extracts were analyzed on a Hewlett-Packard HP1100 MSD single quadrupole mass spectrometer coupled to a Zorbax SB-C18 column (5 μm, 2.1 mm×150 mm). HPLC conditions were as follows: gradient system from 0 to 100% methanol in water (each containing 0.2% acetic acid) within 10 mm; flow rate 0.25 ml min^−1. LC/MS/MS data from both reactions were identical: 6-methyl-4-hydroxy-2-pyrone, Rt=5.068 mm; [M-H]^−125; [M-H—CO2]^−81. The numbers show m/z values with relative intensities in parenthesis. The observed fragmentation matches previously published data.

[2] = 14C malonyl-CoA assay of CHS mutants, products analysed by TLC and autoradiography (naringenin vs resveratrol); type: biochemical; conditions: TLC autoradiography
From the text: Wild type CHS produces chalcone, which spontaneously converts to naringenin, the position of which is indicated by the arrow on the left. Wild type STS produces resveratrol, the position of which is indicated by the arrow of the right. Function conversion of CHS to STS (i.e., the production of the alternate product from the same intermediate) results in diminished production of naringenin and increased production of resveratrol. Various mutants of CHS produce varying degrees of resveratrol, showing that CHS activity can be altered to STS-like activity to different extents by different mutations.
Mutant CHS (SEQ ID NO: 1) has altered activity based on assays conducted with ^14C malonyl-CoA. Products were extracted with ethyl acetate and analyzed by silica gel thin layer chromatography (TLC) and visualized by autoradiography.

[3] = starter p-coumaroyl-CoA or acetyl-CoA

Row | Molecule | product formed [1] | preference for p-coumaroyl-CoA versus acetyl-CoA as starter molecule [1, 3] | further results
1 | 2-PS: 2-Pyrone synthase from Gerbera hybrida, SEQ ID NO:68 [Mutant 2-PS, reference compound] | produces the triketide methylpyrone; also recorded: yields methylpyrone produced from three malonyl-CoA molecules | – | starter molecule accepted [1, 3]: accepts acetyl-CoA but does not use p-coumaroyl-CoA
2 | Wild-type CHS: wild type alfalfa chalcone synthase 2, SEQ ID NO:1 [reference compound] | generates the tetraketide chalcone | 230 fold | –
3 | I254M: CHS I254M mutant (protein, listed as Medicago sativa) MVSVSEIRKAQRAEGPATILAIGTANPANCVEQSTYPDFYFKITNSEHKTELKEKFQRMCDKSMIKRRYMYLTEEILKENPNVCEYMAPSLDARQDMVVVEVPRLGKEAAVKAIKEWGQPKSKITHLIVCTTSGVDMPGADYQLTKLLGLRPYVKRYMMYQQGCFAGGTVLRLAKDLAENNKGARVLVVCSEVTAVTFRGPSDTHLDSLVGQALFGDGAAALIVGSDPVPEIEKPIFEMVWTAQTIAPDSEGAMDGHLREAGLTFHLLKDVPGIVSKNITKALVEAFEPLGISDYNSIFWIAHPGGPAILDQVEQKLALKPEKMNATREVLSEYGNMSSACVLFILDEMRKKSTQNGLKTTGEGLEWGVLFGFGPGLTIETVVLRSVAI | yields chalcone | – | function and specific activity relative to wild-type enzyme [1]: functionally comparable to wild-type enzyme with a modest reduction in specific activity
4 | 2B: alfalfa CHS mutant: A1 (D96A, V98L, V99A, V100M), A2 (T131S, S133T, G134T, V135P, M137L) (protein, UniProt P30074 1-389, looked up, variant D96A V98L V99A V100M T131S S133T G134T V135P M137L) Chalcone synthase 2: MVSVSEIRKAQRAEGPATILAIGTANPANCVEQSTYPDFYFKITNSEHKTELKEKFQRMCDKSMIKRRYMYLTEEILKENPNVCEYMAPSLDARQAMLAMEVPRLGKEAAVKAIKEWGQPKSKITHLIVCSTTTPDLPGADYQLTKLLGLRPYVKRYMMYQQGCFAGGTVLRLAKDLAENNKGARVLVVCSEVTAVTFRGPSDTHLDSLVGQALFGDGAAALIVGSDPVPEIEKPIFEMVWTAQTIAPDSEGAIDGHLREAGLTFHLLKDVPGIVSKNITKALVEAFEPLGISDYNSIFWIAHPGGPAILDQVEQKLALKPEKMNATREVLSEYGNMSSACVLFILDEMRKKSTQNGLKTTGEGLEWGVLFGFGPGLTIETVVLRSVAI | – | – | naringenin amount [2]: reduced amounts of naringenin compared to wild type CHS; resveratrol amount [2]: little or no resveratrol
5 | T197L: CHS T197L mutant (protein, listed as Medicago sativa) MVSVSEIRKAQRAEGPATILAIGTANPANCVEQSTYPDFYFKITNSEHKTELKEKFQRMCDKSMIKRRYMYLTEEILKENPNVCEYMAPSLDARQDMVVVEVPRLGKEAAVKAIKEWGQPKSKITHLIVCTTSGVDMPGADYQLTKLLGLRPYVKRYMMYQQGCFAGGTVLRLAKDLAENNKGARVLVVCSEVTAVLFRGPSDTHLDSLVGQALFGDGAAALIVGSDPVPEIEKPIFEMVWTAQTIAPDSEGAIDGHLREAGLTFHLLKDVPGIVSKNITKALVEAFEPLGISDYNSIFWIAHPGGPAILDQVEQKLALKPEKMNATREVLSEYGNMSSACVLFILDEMRKKSTQNGLKTTGEGLEWGVLFGFGPGLTIETVVLRSVAI | do not form chalcone; also recorded: form a distinct product using coumaroyl-CoA as a starter molecule | 10 fold | –
6 | T197L/G256L/S338I: CHS triple mutant with cavity resembling 2-PS (protein, listed as Medicago sativa) MVSVSEIRKAQRAEGPATILAIGTANPANCVEQSTYPDFYFKITNSEHKTELKEKFQRMCDKSMIKRRYMYLTEEILKENPNVCEYMAPSLDARQDMVVVEVPRLGKEAAVKAIKEWGQPKSKITHLIVCTTSGVDMPGADYQLTKLLGLRPYVKRYMMYQQGCFAGGTVLRLAKDLAENNKGARVLVVCSEVTAVLFRGPSDTHLDSLVGQALFGDGAAALIVGSDPVPEIEKPIFEMVWTAQTIAPDSEGAIDLHLREAGLTFHLLKDVPGIVSKNITKALVEAFEPLGISDYNSIFWIAHPGGPAILDQVEQKLALKPEKMNATREVLSEYGNMISACVLFILDEMRKKSTQNGLKTTGEGLEWGVLFGFGPGLTIETVVLRSVAI | produces only methylpyrone | – | starter molecule accepted [1, 3]: only accepts acetyl-CoA (or malonyl-CoA) as the starter molecule
7 | G256L: CHS G256L mutant (protein, listed as Medicago sativa) MVSVSEIRKAQRAEGPATILAIGTANPANCVEQSTYPDFYFKITNSEHKTELKEKFQRMCDKSMIKRRYMYLTEEILKENPNVCEYMAPSLDARQDMVVVEVPRLGKEAAVKAIKEWGQPKSKITHLIVCTTSGVDMPGADYQLTKLLGLRPYVKRYMMYQQGCFAGGTVLRLAKDLAENNKGARVLVVCSEVTAVTFRGPSDTHLDSLVGQALFGDGAAALIVGSDPVPEIEKPIFEMVWTAQTIAPDSEGAIDLHLREAGLTFHLLKDVPGIVSKNITKALVEAFEPLGISDYNSIFWIAHPGGPAILDQVEQKLALKPEKMNATREVLSEYGNMSSACVLFILDEMRKKSTQNGLKTTGEGLEWGVLFGFGPGLTIETVVLRSVAI | do not form chalcone | – | preference for acetyl-CoA as starter molecule [1, 3]: 3 fold
8 | S338I: CHS S338I mutant (protein, listed as Medicago sativa) MVSVSEIRKAQRAEGPATILAIGTANPANCVEQSTYPDFYFKITNSEHKTELKEKFQRMCDKSMIKRRYMYLTEEILKENPNVCEYMAPSLDARQDMVVVEVPRLGKEAAVKAIKEWGQPKSKITHLIVCTTSGVDMPGADYQLTKLLGLRPYVKRYMMYQQGCFAGGTVLRLAKDLAENNKGARVLVVCSEVTAVTFRGPSDTHLDSLVGQALFGDGAAALIVGSDPVPEIEKPIFEMVWTAQTIAPDSEGAIDGHLREAGLTFHLLKDVPGIVSKNITKALVEAFEPLGISDYNSIFWIAHPGGPAILDQVEQKLALKPEKMNATREVLSEYGNMISACVLFILDEMRKKSTQNGLKTTGEGLEWGVLFGFGPGLTIETVVLRSVAI | do not form chalcone | 3 fold | product formed ([1]; listed as S3381): form a distinct product using coumaroyl-CoA as a starter molecule
9 | 14B: alfalfa CHS mutant: V98L, T131S, S133T, G134T, V135P, M137L (protein, UniProt P30074 1-389, looked up, variant V98L T131S S133T G134T V135P M137L) Chalcone synthase 2: MVSVSEIRKAQRAEGPATILAIGTANPANCVEQSTYPDFYFKITNSEHKTELKEKFQRMCDKSMIKRRYMYLTEEILKENPNVCEYMAPSLDARQDMLVVEVPRLGKEAAVKAIKEWGQPKSKITHLIVCSTTTPDLPGADYQLTKLLGLRPYVKRYMMYQQGCFAGGTVLRLAKDLAENNKGARVLVVCSEVTAVTFRGPSDTHLDSLVGQALFGDGAAALIVGSDPVPEIEKPIFEMVWTAQTIAPDSEGAIDGHLREAGLTFHLLKDVPGIVSKNITKALVEAFEPLGISDYNSIFWIAHPGGPAILDQVEQKLALKPEKMNATREVLSEYGNMSSACVLFILDEMRKKSTQNGLKTTGEGLEWGVLFGFGPGLTIETVVLRSVAI | – | – | naringenin amount [2]: reduced amounts of naringenin compared to wild type CHS; resveratrol amount [2]: little or no resveratrol
